Measured values as given in US10508139B2, “Compound, use, anti-tumor pharmaceutical composition, gene construct for polypeptide expression, process for the production, process for the evaluation of tumor cells, method of sensitization of tumor cells to chemotherapeutic” (União Brasileira de Educaçâo e Assistência, mantendedora da …, priority 2012, dated 2019).

Tests used:
B16F10 cells [1] = test: Tumor growth of B16F10 cells transiently transfected with murine HspBP1 or HspBP1 (1-136); assay type: in vivo, mice; settings: subcutaneous, monitored for 20 days
Procedure: Working with the possibility that human HspBP1 protein is recognized by the mouse immune system and that this is the reason for the tumor growth reduction, we decided to repeat the experiments using murine HspBP1. The B16F10 cells were transiently transfected with plasmid containing the sequence encoding the murine HspBP1 or […] as a control, and these cells were injected subcutaneously in the mouse thigh. Tumor growth was monitored for 20 days by measuring the volume of the thigh using a digital caliper.
B16F10 cells (5×10^5) were transiently transfected with pcDNA4/TO plasmid alone or containing the sequence encoding HspBP1 and HspBP1 (1-136) protein and, after 24 h, were injected subcutaneously into mice. A)—Quantification of tumor growth inhibition by HspBP1 after 20 days of tumor growth (Mann-Whitney test, p<0.05). B)—Tumor-bearing mice were photographed after 20 days of tumor growth. C)—Western blot analysis showing in vitro HspBP1 and truncated HspBP1 (1-136) expression on transfected cells.

[2] = target: T1, Hsp70 on the surface of the cells (Mus musculus, UniProt Q61696); test: Binding to B16F10 cells analyzed by flow cytometry; design: species or system murine; settings: B16F10 cells labeled 2 hours on ice
T1 construct: endogenous in cells; host or cells: B16F10 murine melanoma cells
Excerpt: Studies have shown that Hsp70 and HspBP1 can be secreted by tumor cells (Evdonin et al., 2009) and it is well established that Hsp70 is present in human serum (Pockley et al., 1998). Our laboratory has shown that breast cancer patients had twice the HspBP1 level in their serum compared to tumor-free individuals. Furthermore, breast tumors contained HspBP1 (and Hsp70) levels that were 4 times higher than the normal adjacent tissue (Souza et al., 2009).
Fc receptors were blocked using […], then the cells were labeled for 2 hours on ice with HspBP1 (FL) or HspBP1 (1-136). Cells were acquired on FACS Canto II cytometer (BD bioscience), and the data were analyzed using the FlowJo software (TreeStar).

B16F10 cells [3] = test: Survival of transfected B16F10 cells after heat shock; assay type: cell-based, murine; settings: overexpression in B16F10 cells, heat shock 42° C. for 1 h
Procedure: When Hsp70 is silenced in B16F10 cells using siRNA and when we submit the cells to heat shock, there is a reduction in the number of viable cells in vitro (FIG. 3).
B—Western blot analysis of Hsp70 and actin expression in B16F10 cells, after silencing Hsp70 with siRNA. Cells were treated with control siRNA (lane 1) or Hsp70 siRNA (lane 2) and subsequently heat shocked at 42° C. for 2 hours, followed by a recovery of 37° C. for 4 h. C—Survival of B16F10 cells transiently transfected with pcDNA4/TO plasmid containing the murine HspBP1 sequence or pcDNA4/TO plasmid having murine HspBP1 (1-136) sequence; with or without heat shock at 42° C. for 1 h.

activated caspase 3 = test: Ex vivo activated caspase 3 Western blot of treated tumors; assay type: in vivo, mice; settings: tumor removed 24 hours after treatment, OVA control
Procedure: We performed ex vivo tests to verify that HspBP1 treatment could activate caspase 3 in melanoma. 8×10^5 cells/animals were injected and after 3 days they were treated with HspBP1 FL, HspBP1 (1-136) or OVA. After 24 hours, the tumor was removed and analyzed for activated caspase 3 by Western blot (FIG. 5).
The 17 kDa band represents the marking of activated caspase 3.

B16F10 cells [4] = test: Growth of HspBP1-overexpressing B16F10 tumors in WT and RAG-/- mice; assay type: in vivo; settings: for tumor size vs vector control: 25 days of tumor growth
Procedure: One possibility is that the host immune system plays a role in in vivo tumor growth inhibition mediated by HspBP1. A comparison between wild WT mice (C57BL6/c) and immunodeficient mice (RAG−/−) was used to further explore the involvement of the immune system in tumor regression mediated by HspBP1 overexpression in B16F10 cells (FIG. 10).
Tumor volume (mm3) was measured after 25 days of tumor growth (Mann-Whitney test, p <0.05).

draining lymph nodes = test: Draining lymph node analysis of tumors over-expressing HspBP1 (flow cytometry); assay type: in vivo, mice; settings: 25 days of tumor growth
Procedure: Furthermore, activation of dendritic cells and the number of CD4 and CD8 T cells in draining lymph nodes of tumor-bearing mice transiently over-expressing HspBP1 was evaluated. […] A—Number of CD4+ or CD8+ T cells in draining lymph nodes. B—Number of CD11c+CD86+MHCII+ cells. C—Dot plot graph showing the frequency of CD11c+, CD86 +MHC-II+ dendritic cells.

Hsp70 ATPase activity = Hsp70 ATPase activity (Homo sapiens, UniProt P0DMV8); settings: according to Raynes et al. (2003); cited from earlier work
B16F10 cells [5] = test: Single HspBP1 treatment of B16F10 cells in culture; assay type: cell-based, murine; settings: no added stressor
tumor = test: Intravenous injections in tumor bearing mice; assay type: in vivo; settings: circulating levels increased through intravenous injections
Excerpt: The invention therefore additionally provides a new in vivo experimental model for the development of new anti-tumor agents.

B16F10 cells [6] = test: Intratumoral injection of recombinant protein in melanoma-bearing mice; assay type: in vivo; settings: 40 ug intratumorally on days 3 and 6, monitored for 16 days, BSA control
Procedure: The recombinant form of the non-natural 1-136 peptide was produced. Then melanoma-bearing mice were treated with whole protein (FL) or only with said peptide. […] 3 and 6 days later, 40 ug HspBP1, BSA or truncated HspBP1 were intratumorally injected in 100 uL PBS. Tumor growth was monitored for 16 days. Tumor sizes were measured using a caliper. Tumor volume (V) (mm3) was calculated using V=d2×D×0.5, wherein d=smaller diameter and D=larger diameter.

B16F10 cells [7] = test: Chemo-sensitization of B16F10 cells to cisplatin (MTT); assay type: cell-based, murine; settings: HspBP1 for 2 h, then cisplatin 160 ug/ml, 14 h
Procedure: (§1) It was also assessed whether HspBP1 may enhance the effect of chemotherapeutic agents already used in clinical practice. The B16F10 cells were plated at a concentration of 4×10^3 cells per well in a 96 well plate in 200 ul 10% DMEM medium. After 24 h, HspBP1 was added at different concentrations in AIM-V medium, and cells were incubated for 2 h; then cisplatin was added at a concentration of 160 ug/ml. After 14 h cell viability was assessed using MTT.
as §1, with “The” for “It was also assessed whether HspBP1 may enhance the effect of chemotherapeutic agents already used in clinical practice. The”, “14 h,” for “14 h”

B16F10 cells [8] = test: Sensitization of B16F10 cells to hydrogen peroxide-induced death (MTT, annexin/propidium iodide); assay type: cell-based, murine; settings: HspBP1 for 2 h, then hydrogen peroxide; MTT after 24 h or annexin/propidium iodide after 12 h
Procedure: Since Hsp70 protects against death induced by oxidative stress—such as, for example, that induced in the treatment with hydrogen peroxide, we hypothesized that HspBP1 will sensitize tumors to death by oxidative stress, thereby enabling a tumor cell sensitization method to chemotherapeutic agents. HspBP1 was added at different concentrations with B16F10 cells cultured for 2h and then hydrogen peroxide was added. After 24 h and 12 h viability was assessed using MTT or by annexin and propidium iodide labeling to assess apoptotic cells. […] Viability was assessed using MTT after 24 hours (A) or by annexin and propidium iodide labeling after 12 h (B).

GL, glioma cell line = test: Apoptosis in GL glioma cell line (Annexin V/iodide flow cytometry); assay type: cell-based; settings: 10 or 20 ug for 24 hours, albumin control
Procedure: In vitro assays were performed to verify whether HspBP1 could induce cell death in GL, glioma cell line. 5×10^5 cells were seeded per well in a 24 well plate. Then, cells were incubated with 10 or 20 ug HspBP1 or albumin for 24 hours in DMEM containing 1% fetal bovine serum. After 24 hours, the samples were analyzed by flow cytometry using the Annexin V/iodide kit (BD).

B16F10 cells [9] = test: Tetracycline-induced human HspBP1 overexpression in B16F10 tumors in mice; assay type: in vivo
Excerpt: As part of the experimental strategy, a gene construct was designed and implemented for the Hsp70 binder expression, said construct being particularly useful for gene therapy for the treatment of mammalian tumors. Said gene construct comprises: • a sequence encoding a Hsp70 binding polypeptide; • a promoter sequence operatively linked to said encoding sequence; • said promoter and coding sequences being present on a vector or functional plasmid for expression of said polypeptide in prokaryotic or eukaryotic cells. In this context, a system was developed in which HspBP1 expression was regulated by the presence of tetracycline. B16F10 cells were stably transfected with pcDNA6/TR plasmid, the transfected clones were selected using antibiotic and then the cells were transfected with a plasmid containing the sequence encoding human HspBP1, or empty vector as a control. The HspBP1 increased expression was verified by adding tetracycline to the culture medium. […]
The B16F10 cells were stably transfected with pcDNA6/TR and pcDNA4/TO plasmids with or without the human HspBP1 sequence. […] Quantification of tumor growth inhibition by HspBP1 (Mann-Whitney test, /d/p<0.05). Tumor volume (V) was calculated using V=d2×D×0.5, where d=smaller diameter and D=larger diameter.

T1 sequence (Q61696 whole entry): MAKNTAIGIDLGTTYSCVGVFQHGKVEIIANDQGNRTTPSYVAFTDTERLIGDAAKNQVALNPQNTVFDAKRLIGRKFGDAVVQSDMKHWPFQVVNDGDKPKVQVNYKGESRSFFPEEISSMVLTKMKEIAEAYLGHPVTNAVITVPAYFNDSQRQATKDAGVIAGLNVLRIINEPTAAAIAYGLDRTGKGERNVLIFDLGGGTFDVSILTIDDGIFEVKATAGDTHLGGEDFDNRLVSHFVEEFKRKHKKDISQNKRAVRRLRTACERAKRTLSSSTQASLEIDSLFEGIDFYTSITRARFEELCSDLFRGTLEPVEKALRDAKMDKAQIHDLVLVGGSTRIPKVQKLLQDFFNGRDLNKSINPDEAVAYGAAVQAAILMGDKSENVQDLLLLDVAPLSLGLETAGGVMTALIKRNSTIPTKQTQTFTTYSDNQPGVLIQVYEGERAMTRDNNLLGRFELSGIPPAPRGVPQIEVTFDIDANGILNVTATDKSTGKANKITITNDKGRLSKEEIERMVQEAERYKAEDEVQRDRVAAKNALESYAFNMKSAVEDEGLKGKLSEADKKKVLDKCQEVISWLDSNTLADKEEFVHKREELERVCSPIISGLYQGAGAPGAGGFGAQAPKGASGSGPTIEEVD
Sequence of Hsp70 ATPase activity (P0DMV8 whole entry): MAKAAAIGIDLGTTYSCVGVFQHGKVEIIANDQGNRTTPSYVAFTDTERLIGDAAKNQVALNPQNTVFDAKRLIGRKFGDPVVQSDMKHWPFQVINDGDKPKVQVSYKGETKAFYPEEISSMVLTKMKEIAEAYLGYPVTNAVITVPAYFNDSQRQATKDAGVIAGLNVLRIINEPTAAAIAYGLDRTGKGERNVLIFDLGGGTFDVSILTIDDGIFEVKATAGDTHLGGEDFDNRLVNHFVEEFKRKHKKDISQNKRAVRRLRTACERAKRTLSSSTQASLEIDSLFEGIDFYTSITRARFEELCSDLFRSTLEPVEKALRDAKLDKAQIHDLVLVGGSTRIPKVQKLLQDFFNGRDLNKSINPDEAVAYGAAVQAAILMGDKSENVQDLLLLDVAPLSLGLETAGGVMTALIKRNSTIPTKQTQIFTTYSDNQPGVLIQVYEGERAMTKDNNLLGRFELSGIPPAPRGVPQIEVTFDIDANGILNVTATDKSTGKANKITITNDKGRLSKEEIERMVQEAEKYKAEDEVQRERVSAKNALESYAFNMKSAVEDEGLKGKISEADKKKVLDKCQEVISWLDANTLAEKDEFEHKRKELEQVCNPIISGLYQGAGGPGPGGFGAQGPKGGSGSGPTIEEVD

## murine HspBP1: murine HspBP1 expressed in B16F10 cells from pcDNA4/TO plasmid; 94% identical to human form
B16F10 cells [1]
  tumor growth: inhibits tumor growth

B1: truncated HspBP1: non-natural peptide corresponding to amino acids 1-136 of HspBP1 (protein)
chain: MADKGSGGSRLPLALPPASQGCSSGGSGSSAGGSGNPRPPRNLQGLLQMAITAGSQEPDPPPEPMSEERRQWLQEAMSAAFRGQREEVEQMKNCLRVLSQATPAMAGEAELATDQQEREGALELLADLCENMDNAA
[2]
  binding to the extracellular surface of tumor cells: can bind to the extracellular surface of tumor cells
B16F10 cells [1]
  tumor growth: also inhibits tumor growth
B16F10 cells [3]
  cell survival after heat shock: no changes occur in vitro
Activated caspase 3
  apoptosis in vivo (activated caspase 3): inhibits tumor growth by inducing apoptosis in vivo

B2: HspBP1: Hsp70 binding co-chaperone protein, SEQ ID No: 1; species of the protein not always stated (protein, listed as Mus musculus)
chain: B1 chain
B16F10 cells [4]; RAG -/- mice
  tumor size vs vector control: tendency to be smaller than tumors transfected with vector alone, although the difference was not significant
B16F10 cells [4]; WT mice (C57BL6/c)
  tumor size vs vector control: significantly smaller than tumors transfected only with the vector as a control
B16F10 cells [4]; tumors expressing HspBP1
  tumor size, WT vs RAG -/- mice: significantly smaller in WT than in RAG −/− mice
Draining lymph nodes; CD4 and CD8 T cells
  T cell frequency in the draining lymph nodes: no difference in T cell frequency
Draining lymph nodes; CD11c+CD86+MHCII+ cells
  activation of dendritic cells in the lymph node: trend in the activation of dendritic cells
[2]
  binding to the extracellular surface of tumor cells: can bind to the extracellular surface of tumor cells
Hsp70 ATPase activity
  HspBP1/Hsp70 molar ratio resulting in 50% inhibition of Hsp70 ATPase activity: 4.0
B16F10 cells [5]
  anti-tumor effect in culture: lack of an anti-tumor effect
tumor
  tumor growth: tumor growth was reduced
B16F10 cells [3]
  cell survival after heat shock: no changes occur in vitro
B16F10 cells [6]
  tumor growth: Reduces Tumor Growth
B16F10 cells [7]
  effect on cisplatin-induced death (cell viability, MTT): enhances the effect of cisplatin death
B16F10 cells [8]
  death induced by oxidative stress: enhances death induced by oxidative stress
GL, glioma cell line
  frequency of apoptotic cells: increase in the frequency of apoptotic cells

B3: human HspBP1: human HspBP1 expressed in B16F10 cells from a tetracycline-regulated plasmid (protein, UniProt Q9NZL4 1-359, looked up)
Hsp70-binding protein 1: MSDEGSRGSRLPLALPPASQGCSSGGGGGGSSAGGSGNSRPPRNLQGLLQMAITAGSEEPDPPPEPMSEERRQWLQEAMSAAFRGQREEVEQMKSCLRVLSQPMPPTAGEAEQAADQQEREGALELLADLCENMDNAADFCQLSGMHLLVGRYLEAGAAGLRWRAAQLIGTCSQNVAAIQEQVLGLGALRKLLRLLDRDACDTVRVKALFAISCLVREQEAGLLQFLRLDGFSVLMRAMQQQVQKLKVKSAFLLQNLLVGHPEHKGTLCSMGMVQQLVALVRTEHSPFHEHVLGALCSLVTDFPQGVRECREPELGLEELLRHRCQLLQQHEEYQEELEFCEKLLQTCFSSPADDSMDR
B16F10 cells [9]; B16F10 stably transfected, injected subcutaneously into thigh of mice, tetracycline in drinking water, control tumors 46.9 mm^3
  average tumor volume: 2.07 mm^3
B16F10 cells [9]; induced human HspBP1 overexpression vs mice without tetracycline
  tumor growth: clearly reduced
